This data set can be described thus: Viscosity measurement and state of medium composition (E type viscometer). The format is physicochemical. The procedure: Deacylated gellan gum (KELCOGEL CG-LA, manufactured by SANSHO Co., Ltd.) was suspended in pure water to 0.4% (w/v), and dissolved by stirring with heating at 90° C. This aqueous solution was allowed to cool to room temperature with stirring, and sterilized at 121° C. for 20 min in an autoclave. A 2-fold concentration of DMEM/F-12 medium (manufactured by Aldrich, 50 mL) and sterilization water (47.5 mL) were placed in a 300 mL tall beaker with stirring by a homomixer (3000 rpm) at room temperature, aqueous deacylated gellan gum solution (2.5 mL) was added, and the mixture was continuously stirred for 1 min to prepare a deacylated gellan gum medium composition with a final concentration of 0.01%. Medium compositions added with aqueous deacylated gellan gum solution with final concentrations of 0.02, 0.03 and 0.05% (w/v) were similarly prepared. The viscosity of the medium compositions was measured using an E type viscometer (manufactured by Toki Sangyo Co., Ltd., Viscometer TVE-22 L, standard roter 1°34′×R24) under 37° C. condition at 100 rpm for 5 min.
The medium compositions prepared above were subjected to a suspension test of HeLa cell spheres and a viscosity measurement, in the same manner as with the deacylated gellan gum-containing medium. The viscosity of 1.0% (w/v) methylcellulose was measured at 50 rpm due to the measurement range of the apparatus.
In the same manner as in Reference Experimental Example 2, spheres of HeLa cells were formed, and several tens of the spheres were added to each medium (1 mL) prepared above, the mixture was stood still at 37° C. for 1 hr, and the suspended state of the sphere cells was visually observed. […] Furthermore, it was confirmed that addition of an equal amount of the medium to the cell suspension and centrifugation (300 to 400G, for 5 min) thereof result in sedimentation and recovery of the spheres of HeLa cells.
By a method similar to that for the polysaccharide mixture of Reference Experimental Example 9, DMEM/F-12 media containing deacylated gellan gum at a final concentration of 0.005, 0.01% (w/v) and other polysaccharide were prepared. The final concentration of polysaccharide was set to 0.1% (w/v) for xanthan gum, sodium alginate, locust bean gum, 0.2% (w/v) for methylcellulose, and 0.05% (w/v) for K-carageenan and diutan gum. The state of each medium composition and the viscosity measured by a method similar to that in Analysis Example 1 are shown in Tables 11-16.

Turning to collagen, the state result (concentration 0.01 %(w/v) in DMEM/F-12) was “liquid”, the state result (concentration 0.05 %(w/v) in DMEM/F-12) is listed as “liquid/solid (gel)”, the state result (concentration 0.1 %(w/v) in DMEM/F-12) is listed as “solid (gel)” and the state result (concentration 0.2 %(w/v) in DMEM/F-12) was “solid (gel)”. For the same substance, the viscosity (concentration 0.01 %(w/v) in DMEM/F-12, 37° C., 100 rpm) was 1.18 mPa · s.

Source of the values: patent US20230383245A1, “CULTURE MEDIUM COMPOSITION” (NISSAN CHEMICAL CORPORATION, priority 2014, published 2023).
